Experimental data taken from PMC7414181.

Key:
CD4-Ig [1] = target: CD4-Ig (UniProt P01730)
CD4-Ig [2] = target: CD4-Ig (UniProt P01730); assay: SPR; CD4-Ig captured on a protein A biosensor chip; monomeric gp120 proteins flowed over as a fourfold dilution series with a maximum concentration of 250 nM
[3] = target: YU2_(G458D) gp120 (HIV-1 (strain YU2))
[4] = target: YU2_(G366E) (HIV-1 (strain YU2))
[5] = target: YU2_(E466K) gp120 (HIV-1 (strain YU2))
[6] = target: YU2_(G471R) gp120 (HIV-1 (strain YU2))
[7] = target: YU2wt gp120 (HIV-1 strain YU2) (UniProt P35961)

Substance YU2E466K gp120 (natural protein) has a Kd (CD4-Ig [1]) of 1.7 nM, a koff (CD4-Ig [1]) of 0.00027 s⁻¹ and a kon (CD4-Ig [1]) of 160000 M⁻¹ s⁻¹.
Work on YU2G458D gp120 (natural protein) yielded a Kd (CD4-Ig [1]) of 6 nM, a koff (CD4-Ig [1]) of 0.00121 s⁻¹ and a kon (CD4-Ig [1]) of 200000 M⁻¹ s⁻¹.
Substance YU2G471R gp120 (natural protein) has a Kd (CD4-Ig [1]) of 1.6 nM, a koff (CD4-Ig [1]) of 0.00021 s⁻¹ and a kon (CD4-Ig [1]) of 140000 M⁻¹ s⁻¹.
YU2_(G458D) gp120 (natural protein) was tested, and the fold faster dissociation than YU2wt gp120 (CD4-Ig [2]) was 11 fold.
sCD4 D1D2 (domain or fragment) was tested, and the neutralization of YU2 mutant pseudovirus by sCD4, TZM-bl assay, loss of sensitivity against YU2wt [3] was 30 fold, the neutralization of YU2 mutant pseudovirus by sCD4, TZM-bl assay, loss of sensitivity against YU2wt [4] was 30 fold and the neutralization of YU2 mutant pseudovirus by sCD4, TZM-bl assay, loss of sensitivity against YU2wt [5] was 30 fold. For the same substance, the neutralization of YU2 mutant pseudovirus by sCD4, TZM-bl assay, loss of sensitivity against YU2wt [6] was 30 fold and the Table S5: IC50 of sCD4 in the in vitro neutralisation of YU2wt pseudovirus on TZM-bl cells (blocks Env from CD4 on target cells) [7] was 0.29 µg/mL.
